Among the targets are IL16_3, Q14005; DLG1_3, Q12959; NHERF4_2, Q86UT5; MAST1, Q9Y2H9; PTPN3, P26045; HTRA1, Q92743; MAGI2_5, Q86UL8; NOS1, P29475; TJP1_2, Q07157; PICK1, Q9NRD5; AHNAK1, Q09666; DLG2_3, Q15700.
Common to all, as to test: holdup assay
Common to all, as to set-up: key: below the threshold = too weak to quantify, mostly under pKd 3.1 to 4
Holding throughout (conditions): plain residues with an end cap or a label only (N-terminal biotin on a linker: ado-ado)

Another assay addresses T1, DFNB31_3, Q9P202.
T1 sequence (Q9P202 811-907, limits assumed, looked up): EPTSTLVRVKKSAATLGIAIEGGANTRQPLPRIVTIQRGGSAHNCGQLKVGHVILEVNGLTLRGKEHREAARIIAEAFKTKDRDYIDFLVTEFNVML

The next assay has as its target T2, LRRC7, Q96NW7.
T2 sequence (Q96NW7 1440-1537, limits assumed, looked up): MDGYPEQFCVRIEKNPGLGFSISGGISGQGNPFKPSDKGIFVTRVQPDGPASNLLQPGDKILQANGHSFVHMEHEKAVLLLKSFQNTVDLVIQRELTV

The next assay concerns the target T3, MPDZ_10, O75970.
T3 sequence (O75970 1624-1722, limits assumed, looked up): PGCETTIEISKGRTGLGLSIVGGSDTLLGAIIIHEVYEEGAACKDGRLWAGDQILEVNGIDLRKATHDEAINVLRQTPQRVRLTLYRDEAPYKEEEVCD

The target in another assay is T4, MPDZ_12, O75970.
T4 sequence (O75970 1857-1958, limits assumed, looked up): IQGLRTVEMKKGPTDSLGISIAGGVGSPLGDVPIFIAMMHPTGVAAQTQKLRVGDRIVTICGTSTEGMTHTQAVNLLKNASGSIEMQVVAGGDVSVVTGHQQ

A further assay deals with T5, TX1BP3, O14907.
T5 sequence (O14907 10-122, limits assumed, looked up): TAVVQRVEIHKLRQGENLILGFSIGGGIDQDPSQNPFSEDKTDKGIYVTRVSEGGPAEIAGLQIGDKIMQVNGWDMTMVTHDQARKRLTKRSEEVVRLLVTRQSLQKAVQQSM

In a further assay the target is T6, DLG3_1, Q92796.
T6 sequence (Q92796 125-227, limits assumed, looked up): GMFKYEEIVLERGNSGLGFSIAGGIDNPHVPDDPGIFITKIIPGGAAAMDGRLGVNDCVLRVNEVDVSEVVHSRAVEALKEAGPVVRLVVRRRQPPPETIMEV

The target in the next assay is T7, APBA3_1, O96018.
T7 sequence (O96018 389-490, limits assumed, looked up): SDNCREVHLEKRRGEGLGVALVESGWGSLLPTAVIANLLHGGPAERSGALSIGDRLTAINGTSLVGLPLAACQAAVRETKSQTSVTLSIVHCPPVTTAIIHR

The target in the next assay is T8, LIN7A, O14910.
T8 sequence (O14910 103-200, limits assumed, looked up): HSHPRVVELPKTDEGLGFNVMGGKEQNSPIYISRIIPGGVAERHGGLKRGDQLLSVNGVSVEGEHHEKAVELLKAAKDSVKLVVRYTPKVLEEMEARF

The target in another assay is T9, MPDZ_5, O75970.
T9 sequence (O75970 695-796, limits assumed, looked up): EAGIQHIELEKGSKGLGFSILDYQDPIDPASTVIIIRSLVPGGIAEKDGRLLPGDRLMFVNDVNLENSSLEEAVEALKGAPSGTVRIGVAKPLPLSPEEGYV

The next assay addresses T10, PDZRN3_1, Q9UPQ7.
T10 sequence (Q9UPQ7 244-349, limits assumed, looked up): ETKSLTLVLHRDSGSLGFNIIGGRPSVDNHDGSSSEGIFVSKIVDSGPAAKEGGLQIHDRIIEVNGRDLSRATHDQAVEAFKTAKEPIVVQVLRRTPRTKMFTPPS

A further assay addresses T11, ARHGEF11, O15085.
T11 sequence (O15085 42-136, limits assumed, looked up): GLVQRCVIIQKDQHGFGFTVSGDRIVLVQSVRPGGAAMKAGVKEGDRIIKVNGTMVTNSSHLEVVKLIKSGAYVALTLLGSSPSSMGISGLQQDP

Another assay addresses T12, NHERF3_4, Q5T2W1.
T12 sequence (Q5T2W1 373-468, limits assumed, looked up): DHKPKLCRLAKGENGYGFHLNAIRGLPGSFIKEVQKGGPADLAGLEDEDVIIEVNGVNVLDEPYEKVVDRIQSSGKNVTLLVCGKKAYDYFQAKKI

pKd data for four molecules are collected here from paper PMC9482650, “Quantitative fragmentomics allow affinity mapping of interactomes” (Nature Communications, 2022).

Chain of NHERF4_2, Q86UT5 (Q86UT5 220-308): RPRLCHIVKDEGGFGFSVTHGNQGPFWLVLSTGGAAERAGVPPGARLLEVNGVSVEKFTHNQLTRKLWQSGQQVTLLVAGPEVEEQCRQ
Chain of NOS1, P29475 (P29475 9-101): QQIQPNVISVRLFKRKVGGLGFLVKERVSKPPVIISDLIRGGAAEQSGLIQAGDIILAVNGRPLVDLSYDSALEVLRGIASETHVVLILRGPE
Chain of AHNAK1, Q09666 (Q09666 4-100): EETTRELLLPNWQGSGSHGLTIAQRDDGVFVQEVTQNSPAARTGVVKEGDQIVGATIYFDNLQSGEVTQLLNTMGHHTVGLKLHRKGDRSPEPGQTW
Chain of DLG1_3, Q12959 (Q12959 457-571): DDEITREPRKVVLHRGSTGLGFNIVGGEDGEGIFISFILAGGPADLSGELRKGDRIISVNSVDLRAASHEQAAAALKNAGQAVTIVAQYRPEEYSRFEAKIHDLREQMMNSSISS
Chain of TJP1_2, Q07157 (Q07157 181-274): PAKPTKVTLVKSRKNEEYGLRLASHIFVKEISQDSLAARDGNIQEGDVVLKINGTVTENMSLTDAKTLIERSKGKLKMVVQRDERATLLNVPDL
Chain of MAGI2_5, Q86UL8 (Q86UL8 915-1017): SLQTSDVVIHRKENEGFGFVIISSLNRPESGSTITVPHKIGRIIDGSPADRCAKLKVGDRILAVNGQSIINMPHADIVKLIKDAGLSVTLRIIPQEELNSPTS
Chain of HTRA1, Q92743 (Q92743 360-477): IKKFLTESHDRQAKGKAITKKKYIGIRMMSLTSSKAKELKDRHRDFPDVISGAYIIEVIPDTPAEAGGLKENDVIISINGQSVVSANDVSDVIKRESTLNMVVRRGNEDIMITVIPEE
Chain of MAST1, Q9Y2H9 (Q9Y2H9 962-1065): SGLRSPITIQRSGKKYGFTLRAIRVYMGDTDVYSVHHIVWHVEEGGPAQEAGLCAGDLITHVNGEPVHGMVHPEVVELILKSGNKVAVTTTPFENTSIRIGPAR
Chain of PTPN3, P26045 (P26045 505-587): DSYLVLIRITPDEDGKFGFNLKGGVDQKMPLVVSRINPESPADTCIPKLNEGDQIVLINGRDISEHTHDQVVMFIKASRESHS
Chain of IL16_3, Q14005 (Q14005 1107-1207): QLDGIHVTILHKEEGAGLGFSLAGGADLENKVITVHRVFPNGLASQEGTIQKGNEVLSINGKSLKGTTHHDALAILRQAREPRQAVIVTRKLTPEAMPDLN
Chain of PICK1, Q9NRD5 (Q9NRD5 17-115): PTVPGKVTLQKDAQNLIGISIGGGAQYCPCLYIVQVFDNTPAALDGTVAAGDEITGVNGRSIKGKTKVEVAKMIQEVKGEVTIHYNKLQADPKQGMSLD

As for THREVKFTSL [CD46, P15529], the pKd was 3.85 in the assay with DFNB31_3, Q9P202; “below the threshold” with LRRC7, Q96NW7; “below the threshold” in the assay with IL16_3, Q14005; “below the threshold” in the assay with MPDZ_10, O75970; “below the threshold” in the assay with MPDZ_12, O75970; 3.75 in the assay with DLG1_3, Q12959. Also, the pKd entry is “below the threshold” with NHERF4_2, Q86UT5; 4.81 in the assay with MAST1, Q9Y2H9; 4.37 with TX1BP3, O14907; “below the threshold” with DLG3_1, Q92796; “below the threshold” with APBA3_1, O96018; “below the threshold” with LIN7A, O14910. For the same molecule, the pKd with PTPN3, P26045 is 4.83; in the assay with HTRA1, Q92743, 3.89; in the assay with MPDZ_5, O75970, “below the threshold”; with MAGI2_5, Q86UL8, 3.84; with PDZRN3_1, Q9UPQ7, 4.27; with NOS1, P29475, 3.75. The pKd result in the assay with TJP1_2, Q07157 is “below the threshold”; in the assay with PICK1, Q9NRD5, 4.08; with ARHGEF11, O15085, 4.75; in the assay with NHERF3_4, Q5T2W1, 4.6; with AHNAK1, Q09666, “below the threshold”; in the assay with DLG2_3, Q15700, 4.38.
As for PSDSVGKDVF [EGLN1, Q9GZT9], the pKd result is listed as “below the threshold” in the assay with DFNB31_3, Q9P202; “below the threshold” with LRRC7, Q96NW7; “below the threshold” in the assay with IL16_3, Q14005; “below the threshold” with MPDZ_10, O75970; “below the threshold” with MPDZ_12, O75970; “below the threshold” with DLG1_3, Q12959. Besides, the pKd result is given as “below the threshold” with NHERF4_2, Q86UT5; “below the threshold” in the assay with MAST1, Q9Y2H9; “below the threshold” with TX1BP3, O14907; “below the threshold” in the assay with DLG3_1, Q92796; “below the threshold” with APBA3_1, O96018; “below the threshold” with LIN7A, O14910. The pKd result in the assay with PTPN3, P26045 is “below the threshold”; with HTRA1, Q92743, 3.77; with MPDZ_5, O75970, “below the threshold”; with MAGI2_5, Q86UL8, “below the threshold”; with PDZRN3_1, Q9UPQ7 it was “below the threshold”; with NOS1, P29475, “below the threshold”. Moreover, the pKd result is “below the threshold” with TJP1_2, Q07157; “below the threshold” with PICK1, Q9NRD5; “below the threshold” in the assay with ARHGEF11, O15085; “below the threshold” with NHERF3_4, Q5T2W1; “below the threshold” with AHNAK1, Q09666; 3.57 with DLG2_3, Q15700.
With QKNKDREYYV [NRXN3, Q9HDB5], the pKd in the assay with DFNB31_3, Q9P202 was 3.97; with LRRC7, Q96NW7, “below the threshold”; with IL16_3, Q14005, “below the threshold”; with MPDZ_10, O75970, “below the threshold”; with MPDZ_12, O75970 it was “below the threshold”; in the assay with DLG1_3, Q12959 it was “below the threshold”. Moreover, the pKd entry in the assay with NHERF4_2, Q86UT5 is on record as “below the threshold”; with MAST1, Q9Y2H9, “below the threshold”; with TX1BP3, O14907, “below the threshold”; with DLG3_1, Q92796, “below the threshold”; with APBA3_1, O96018, “below the threshold”; with LIN7A, O14910, “below the threshold”. In addition, the negative-log Kd (pKd) was 4.37 in the assay with PTPN3, P26045; 5.49 with HTRA1, Q92743; 4.71 with MPDZ_5, O75970; “below the threshold” in the assay with MAGI2_5, Q86UL8; “below the threshold” with PDZRN3_1, Q9UPQ7; 4.11 with NOS1, P29475. The pKd is 3.57 with TJP1_2, Q07157; “below the threshold” with PICK1, Q9NRD5; 4.2 with ARHGEF11, O15085; “below the threshold” with NHERF3_4, Q5T2W1; “below the threshold” with AHNAK1, Q09666; “below the threshold” in the assay with DLG2_3, Q15700.
With VYEVPVETKF [SLC26A3, P40879], the pKd is 3.94 with DFNB31_3, Q9P202; “below the threshold” in the assay with LRRC7, Q96NW7; “below the threshold” with IL16_3, Q14005; “below the threshold” with MPDZ_10, O75970; “below the threshold” in the assay with MPDZ_12, O75970; 3.6 with DLG1_3, Q12959. Also, the pKd entry with NHERF4_2, Q86UT5 was “below the threshold”; with MAST1, Q9Y2H9, 5.07; with TX1BP3, O14907, “below the threshold”; in the assay with DLG3_1, Q92796 it was “below the threshold”; in the assay with APBA3_1, O96018, “below the threshold”; with LIN7A, O14910 it was “below the threshold”. The pKd with PTPN3, P26045 was 4.84; with HTRA1, Q92743 it was “below the threshold”; with MPDZ_5, O75970, “below the threshold”; with MAGI2_5, Q86UL8 it was 3.71; in the assay with PDZRN3_1, Q9UPQ7, “below the threshold”; with NOS1, P29475, 3.72. Moreover, the pKd entry in the assay with TJP1_2, Q07157 was “below the threshold”; with PICK1, Q9NRD5, 4.19; in the assay with ARHGEF11, O15085 it was 3.62; in the assay with NHERF3_4, Q5T2W1, 4.15; in the assay with AHNAK1, Q09666, “below the threshold”; in the assay with DLG2_3, Q15700, 3.74.

One may read the pKd as −log10 of the Kd, conventionally taken in molar units.
